Tests used:
c-Src SH2 = experiment: SH2 binding enrichment of the phosphorylated peptide, bacterial display (enrichment ratio); higher = better substrate or ligand; peptides without Tyr show the background
Grb2 SH2 = Grb2 SH2 (UniProt P62993); experiment: as above
SHP2-C SH2 = experiment: as above
EPHB2 = EPHB2 (UniProt P29323); experiment: phosphorylation enrichment, bacterial display (enrichment ratio); higher = better substrate or ligand; peptides without Tyr show the background
AncSZ = experiment: as above
FGFR1 = FGFR1 (UniProt P11362); experiment: as above
Jak2 = Jak2 (UniProt O60674); experiment: as above
MERTK = MERTK (UniProt Q12866); experiment: as above
c-Abl (mouse) = experiment: as above
c-Src = experiment: as above
EPHB1 = EPHB1 (UniProt P54762); experiment: as above
Fer (mouse) = experiment: as above
FGFR3 = FGFR3 (UniProt P22607); experiment: as above
Fyn = Fyn (UniProt P06241); experiment: as above
Fes = Fes (UniProt P07332); experiment: as above
Hck = Hck (UniProt P08631); experiment: as above
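For SH2 binding enrichment of the phosphorylated peptide, bacterial display in this document: peptide library displayed on the E. coli surface as eCPX fusions, selected cells deep-sequenced, score is each peptide's frequency after selection divided by its frequency in the input.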
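For phosphorylation enrichment, bacterial display in this document: 11-residue human phosphosite peptides and single-mutation variants displayed on the E. coli surface, counted by deep sequencing, each peptide's frequency after selection divided by its frequency in the unselected input library; frequency after pTyr selection over input frequency; kinase dosed for 20-30% of maximal phosphorylation in three min.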

Chain of EPHB2 (P29323 whole entry, looked up): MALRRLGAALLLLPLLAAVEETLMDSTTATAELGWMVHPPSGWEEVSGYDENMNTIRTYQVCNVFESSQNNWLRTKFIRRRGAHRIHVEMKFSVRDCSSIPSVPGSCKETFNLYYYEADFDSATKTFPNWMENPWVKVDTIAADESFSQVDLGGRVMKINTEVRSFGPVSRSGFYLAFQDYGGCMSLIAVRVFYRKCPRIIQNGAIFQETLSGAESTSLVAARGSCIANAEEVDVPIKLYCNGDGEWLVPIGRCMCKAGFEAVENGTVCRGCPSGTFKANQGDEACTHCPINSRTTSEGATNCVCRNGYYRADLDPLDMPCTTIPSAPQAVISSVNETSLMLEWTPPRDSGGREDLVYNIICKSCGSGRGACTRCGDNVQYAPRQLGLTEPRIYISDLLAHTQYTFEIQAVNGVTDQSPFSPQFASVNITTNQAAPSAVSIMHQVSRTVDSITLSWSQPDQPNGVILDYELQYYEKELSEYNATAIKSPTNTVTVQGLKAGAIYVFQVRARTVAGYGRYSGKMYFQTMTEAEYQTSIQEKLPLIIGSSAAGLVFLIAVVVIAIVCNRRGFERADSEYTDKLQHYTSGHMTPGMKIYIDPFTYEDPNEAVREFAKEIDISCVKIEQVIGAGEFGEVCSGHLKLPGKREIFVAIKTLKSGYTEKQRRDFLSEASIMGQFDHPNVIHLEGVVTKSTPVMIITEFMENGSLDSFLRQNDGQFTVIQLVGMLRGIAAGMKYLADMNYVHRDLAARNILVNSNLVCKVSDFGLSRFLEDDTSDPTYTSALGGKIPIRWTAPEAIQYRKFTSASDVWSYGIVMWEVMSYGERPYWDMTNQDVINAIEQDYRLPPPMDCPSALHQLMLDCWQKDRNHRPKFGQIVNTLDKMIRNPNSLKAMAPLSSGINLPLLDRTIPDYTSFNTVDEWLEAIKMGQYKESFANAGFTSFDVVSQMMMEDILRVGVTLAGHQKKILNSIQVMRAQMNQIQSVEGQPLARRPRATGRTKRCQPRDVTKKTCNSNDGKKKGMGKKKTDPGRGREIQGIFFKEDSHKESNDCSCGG
Chain of MERTK (Q12866 whole entry, looked up): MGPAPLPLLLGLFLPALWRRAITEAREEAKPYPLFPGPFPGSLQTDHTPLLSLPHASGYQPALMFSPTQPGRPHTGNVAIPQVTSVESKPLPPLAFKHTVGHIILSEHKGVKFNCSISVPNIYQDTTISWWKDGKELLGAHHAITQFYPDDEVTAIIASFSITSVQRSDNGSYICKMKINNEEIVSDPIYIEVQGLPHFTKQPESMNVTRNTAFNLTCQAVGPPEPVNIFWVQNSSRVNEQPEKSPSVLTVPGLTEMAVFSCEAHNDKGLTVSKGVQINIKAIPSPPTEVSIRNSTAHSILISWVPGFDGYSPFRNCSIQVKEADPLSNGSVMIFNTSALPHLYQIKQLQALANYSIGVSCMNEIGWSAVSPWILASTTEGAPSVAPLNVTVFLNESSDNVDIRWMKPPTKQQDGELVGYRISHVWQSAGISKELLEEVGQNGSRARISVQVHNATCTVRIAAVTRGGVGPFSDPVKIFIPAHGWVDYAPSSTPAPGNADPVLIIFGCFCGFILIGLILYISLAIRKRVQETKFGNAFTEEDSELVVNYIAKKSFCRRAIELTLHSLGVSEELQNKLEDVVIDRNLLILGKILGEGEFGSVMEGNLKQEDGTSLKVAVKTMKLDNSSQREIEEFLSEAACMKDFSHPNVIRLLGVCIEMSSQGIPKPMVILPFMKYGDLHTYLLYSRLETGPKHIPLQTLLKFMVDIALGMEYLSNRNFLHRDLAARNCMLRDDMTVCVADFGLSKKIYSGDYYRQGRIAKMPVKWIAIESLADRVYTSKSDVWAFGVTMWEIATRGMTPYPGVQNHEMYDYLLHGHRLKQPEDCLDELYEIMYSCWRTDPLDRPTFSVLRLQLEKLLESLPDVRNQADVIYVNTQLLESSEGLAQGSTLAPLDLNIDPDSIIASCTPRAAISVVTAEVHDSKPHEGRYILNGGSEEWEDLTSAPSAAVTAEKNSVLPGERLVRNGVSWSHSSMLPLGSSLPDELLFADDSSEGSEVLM
Chain of Fyn (P06241 whole entry, looked up): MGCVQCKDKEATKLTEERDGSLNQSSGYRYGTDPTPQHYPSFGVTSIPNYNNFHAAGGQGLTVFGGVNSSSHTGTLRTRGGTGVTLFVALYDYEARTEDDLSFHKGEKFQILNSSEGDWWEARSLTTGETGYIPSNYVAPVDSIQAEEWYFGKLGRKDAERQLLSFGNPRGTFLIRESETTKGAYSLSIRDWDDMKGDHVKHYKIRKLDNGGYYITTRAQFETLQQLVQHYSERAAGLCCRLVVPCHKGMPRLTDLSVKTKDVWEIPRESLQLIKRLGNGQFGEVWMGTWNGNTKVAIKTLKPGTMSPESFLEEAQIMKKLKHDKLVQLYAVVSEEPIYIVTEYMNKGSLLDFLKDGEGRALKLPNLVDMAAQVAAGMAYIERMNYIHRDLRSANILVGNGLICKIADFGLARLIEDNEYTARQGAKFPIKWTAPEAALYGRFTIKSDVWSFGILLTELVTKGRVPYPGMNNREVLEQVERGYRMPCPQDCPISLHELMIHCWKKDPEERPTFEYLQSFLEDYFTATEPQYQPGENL
Chain of FGFR3 (P22607 whole entry, looked up): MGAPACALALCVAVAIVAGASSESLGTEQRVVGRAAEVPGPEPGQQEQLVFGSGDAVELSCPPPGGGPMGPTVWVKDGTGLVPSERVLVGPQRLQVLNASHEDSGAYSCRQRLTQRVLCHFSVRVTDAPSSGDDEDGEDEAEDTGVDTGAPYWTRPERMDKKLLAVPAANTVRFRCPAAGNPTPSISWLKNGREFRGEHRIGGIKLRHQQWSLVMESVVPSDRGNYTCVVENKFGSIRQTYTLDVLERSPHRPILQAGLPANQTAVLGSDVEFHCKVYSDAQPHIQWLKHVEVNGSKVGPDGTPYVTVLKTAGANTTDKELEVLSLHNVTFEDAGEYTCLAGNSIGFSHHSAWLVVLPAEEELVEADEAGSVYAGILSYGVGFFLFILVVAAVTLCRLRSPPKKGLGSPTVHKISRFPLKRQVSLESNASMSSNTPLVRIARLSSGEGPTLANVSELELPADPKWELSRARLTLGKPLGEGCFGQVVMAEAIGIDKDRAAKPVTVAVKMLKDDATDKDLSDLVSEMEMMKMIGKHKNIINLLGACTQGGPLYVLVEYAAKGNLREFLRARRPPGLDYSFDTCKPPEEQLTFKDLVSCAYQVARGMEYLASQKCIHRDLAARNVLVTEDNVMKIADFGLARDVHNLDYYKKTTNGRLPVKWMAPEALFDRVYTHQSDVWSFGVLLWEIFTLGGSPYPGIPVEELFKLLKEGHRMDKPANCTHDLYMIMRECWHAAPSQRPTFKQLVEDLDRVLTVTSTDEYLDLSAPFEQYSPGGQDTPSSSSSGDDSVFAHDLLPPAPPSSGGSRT
Chain of EPHB1 (P54762 whole entry, looked up): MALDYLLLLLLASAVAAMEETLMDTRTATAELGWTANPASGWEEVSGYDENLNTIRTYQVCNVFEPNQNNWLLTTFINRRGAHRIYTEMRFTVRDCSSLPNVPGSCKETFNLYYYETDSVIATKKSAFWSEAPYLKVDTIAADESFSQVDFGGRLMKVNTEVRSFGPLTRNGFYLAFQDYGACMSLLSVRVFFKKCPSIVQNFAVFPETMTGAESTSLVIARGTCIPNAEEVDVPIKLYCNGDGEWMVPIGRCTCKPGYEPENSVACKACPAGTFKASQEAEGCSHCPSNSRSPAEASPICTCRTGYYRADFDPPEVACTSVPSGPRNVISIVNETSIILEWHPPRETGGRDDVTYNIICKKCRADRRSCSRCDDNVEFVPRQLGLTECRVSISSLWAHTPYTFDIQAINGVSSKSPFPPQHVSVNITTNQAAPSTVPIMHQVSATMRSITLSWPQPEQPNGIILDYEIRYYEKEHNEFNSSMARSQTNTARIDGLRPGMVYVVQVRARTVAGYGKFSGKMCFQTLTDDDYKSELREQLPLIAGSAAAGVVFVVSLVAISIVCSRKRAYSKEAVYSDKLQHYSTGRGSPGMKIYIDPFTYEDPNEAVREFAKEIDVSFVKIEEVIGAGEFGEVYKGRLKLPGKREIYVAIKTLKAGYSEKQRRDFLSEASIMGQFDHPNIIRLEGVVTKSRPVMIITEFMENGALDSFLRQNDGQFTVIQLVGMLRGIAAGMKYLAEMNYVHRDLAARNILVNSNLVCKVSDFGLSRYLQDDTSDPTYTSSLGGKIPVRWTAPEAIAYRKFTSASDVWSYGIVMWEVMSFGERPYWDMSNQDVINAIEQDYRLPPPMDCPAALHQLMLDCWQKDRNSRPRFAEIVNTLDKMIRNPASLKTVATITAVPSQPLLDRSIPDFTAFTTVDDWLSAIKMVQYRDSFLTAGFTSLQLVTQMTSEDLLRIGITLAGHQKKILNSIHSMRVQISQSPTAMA
Chain of Hck (P08631 whole entry, looked up, the tested form may be a part): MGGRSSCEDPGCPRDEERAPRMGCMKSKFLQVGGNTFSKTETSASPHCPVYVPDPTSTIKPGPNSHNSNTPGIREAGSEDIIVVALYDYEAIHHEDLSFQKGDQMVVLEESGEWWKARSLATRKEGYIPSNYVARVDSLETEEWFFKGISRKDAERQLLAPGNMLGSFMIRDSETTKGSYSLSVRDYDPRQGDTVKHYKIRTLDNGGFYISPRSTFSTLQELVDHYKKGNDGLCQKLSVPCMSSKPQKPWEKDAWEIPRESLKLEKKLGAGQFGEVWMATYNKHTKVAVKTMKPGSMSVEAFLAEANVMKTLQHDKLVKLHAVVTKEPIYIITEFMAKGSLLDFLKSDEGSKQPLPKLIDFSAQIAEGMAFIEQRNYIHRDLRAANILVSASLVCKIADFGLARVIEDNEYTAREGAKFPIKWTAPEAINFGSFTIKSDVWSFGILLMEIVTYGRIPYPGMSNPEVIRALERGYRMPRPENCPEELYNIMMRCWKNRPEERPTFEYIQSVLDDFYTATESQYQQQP

Sequence	SH2 binding enrichment (c-Src SH2)	SH2 binding enrichment (Grb2 SH2)	SH2 binding enrichment (SHP2-C SH2)	phosphorylation enrichment (EPHB2)	phosphorylation enrichment (AncSZ)	phosphorylation enrichment (FGFR1)	phosphorylation enrichment (Jak2)	phosphorylation enrichment (MERTK)	phosphorylation enrichment (c-Abl (mouse))	phosphorylation enrichment (c-Src)	phosphorylation enrichment (EPHB1)	phosphorylation enrichment (Fer (mouse))	phosphorylation enrichment (FGFR3)	phosphorylation enrichment (Fyn)	phosphorylation enrichment (Fes)	phosphorylation enrichment (Hck)
QITQVYGFYDE [PPP2CA_Y127]	1.72	0.867	0.693	1.12	1.24	0.615	1.06	1.58	1.01	6.85	0.716	1.3	1.27	9.45	1.21	3.7
FTGSTYRVGDT [FN1_Y106_N104S_YF]	0.443	0.731	0.482	0.384	0.631	0.425	0.783	0.551	0.448	0.484	0.41	0.492	0.431	0.37	0.703	0.404
GNLLIYTKFGK [HGD_Y166_E168K]	0.571	0.666	0.755	0.666	1.31	0.572	1.26	0.991	1.5	2.02	0.921	0.532	0.788	1.46	1.28	1.36
ADDSFYTVRSA [ZAP70_Y493_A495V_YF]	0.466	0.701	0.556	0.478	0.884	0.444	0.829	0.552	0.734	1.53	0.439	0.489	0.748	1.21	0.999	1.22
DRKRQCELLKL [KIF4B_Y684_Y684C]	0.886	1.03	1.19	0.404	0.646	0.502	0.791	0.356	0.679	0.493	0.401	0.432	0.689	0.355	0.839	0.428
TLSGIYQYIIA [FOXL2_Y81]	1.49	1.22	1.87	12.2	1.54	11.1	1.09	9.32	4.23	4.81	12.9	13.9	8.01	6.05	5.1	7.53
EREFKYGAHNH [OAT_Y50_Y55H_YF]	0.465	0.788	0.856	0.228	0.524	0.336	0.376	0.439	0.44	0.319	0.474	0.441	0.368	0.307	0.545	0.29
KLRMEYLSLMH [NCKIPSD_Y660]	1.44	2.08	1.97	0.609	0.857	0.52	0.976	0.419	0.8	0.445	0.524	0.455	0.737	0.438	0.991	0.515
LGPDGYSTVDQ [ARVCF_Y901_R906Q]	36	1.21	1.77	1.22	1.63	1.04	1.72	0.707	1.31	0.848	0.876	0.833	1.21	0.982	2.87	0.9
SFIGQYSGKKE [L1CAM_Y1229]	0.525	0.721	0.622	0.413	0.735	0.417	0.532	0.382	0.609	0.374	0.452	0.372	0.519	0.461	0.714	0.486
FSQQTYFPVSN [ABCD1_Y180_R182P_YF]	0.599	0.647	0.811	0.908	1.1	4.99	5.51	3.42	0.723	1.95	0.946	0.494	3.8	0.889	1.01	2.5
RCQDLYSARDL [SART1_Y249_R245C]	0.391	0.825	0.605	1.06	1.95	0.876	1.97	4.7	1.41	6.42	1.63	2.59	1.22	4.61	1.76	9.83
QEIATHRRLLE [KRT14_Y415_Y415H]	0.543	0.978	0.722	0.469	0.692	0.529	0.575	0.69	0.695	0.43	0.403	0.711	1.09	0.576	1.06	0.508
TRNREYDDIDD [TTYH2_Y424_D423E]	0.545	0.589	0.358	0.496	0.904	0.548	0.57	0.559	0.54	0.581	0.53	0.533	0.693	0.585	0.789	0.609
IVFVIYDEVVK [SLC25A1_Y297]	1.27	1.5	1.61	2.01	1.16	0.53	1.26	0.576	0.888	0.855	1.9	0.708	0.863	1.03	1.19	1.44
YIGVTYKNEED [PDGFRA_Y993]	1.89	1.35	1.52	0.539	1	0.71	0.961	0.433	0.666	0.461	0.602	0.555	0.822	0.528	1.05	0.509
